Experimental data published in US20240309103A1 (Regeneron, published 2024).

T1: monkey NPR1 extracellular domain expressed with a C-terminal myc-myc-hexahistidine (mfNPR1-MMH) (monkey, UniProt P16066 33-473 (human entry))
T1 construct: also called monomeric monkey NPR1
T1 chain: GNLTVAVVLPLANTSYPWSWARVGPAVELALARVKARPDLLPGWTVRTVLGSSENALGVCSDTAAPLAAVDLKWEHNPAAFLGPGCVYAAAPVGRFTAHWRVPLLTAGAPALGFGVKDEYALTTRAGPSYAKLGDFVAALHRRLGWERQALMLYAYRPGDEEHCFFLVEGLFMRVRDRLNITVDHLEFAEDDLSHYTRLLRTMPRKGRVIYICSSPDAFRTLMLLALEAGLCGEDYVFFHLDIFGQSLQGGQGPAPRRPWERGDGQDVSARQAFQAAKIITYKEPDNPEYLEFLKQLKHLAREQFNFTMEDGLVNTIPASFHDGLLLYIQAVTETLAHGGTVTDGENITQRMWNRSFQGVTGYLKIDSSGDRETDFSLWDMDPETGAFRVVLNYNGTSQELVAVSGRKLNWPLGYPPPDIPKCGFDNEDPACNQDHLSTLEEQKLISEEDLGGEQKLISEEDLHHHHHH

T2: human NPR1 extracellular domain expressed with a C-terminal mouse IgG2a (hNPR1-mFc) (human)
T2 construct: also called hNPR1-Fc; human NPR1 dimer
T2 chain: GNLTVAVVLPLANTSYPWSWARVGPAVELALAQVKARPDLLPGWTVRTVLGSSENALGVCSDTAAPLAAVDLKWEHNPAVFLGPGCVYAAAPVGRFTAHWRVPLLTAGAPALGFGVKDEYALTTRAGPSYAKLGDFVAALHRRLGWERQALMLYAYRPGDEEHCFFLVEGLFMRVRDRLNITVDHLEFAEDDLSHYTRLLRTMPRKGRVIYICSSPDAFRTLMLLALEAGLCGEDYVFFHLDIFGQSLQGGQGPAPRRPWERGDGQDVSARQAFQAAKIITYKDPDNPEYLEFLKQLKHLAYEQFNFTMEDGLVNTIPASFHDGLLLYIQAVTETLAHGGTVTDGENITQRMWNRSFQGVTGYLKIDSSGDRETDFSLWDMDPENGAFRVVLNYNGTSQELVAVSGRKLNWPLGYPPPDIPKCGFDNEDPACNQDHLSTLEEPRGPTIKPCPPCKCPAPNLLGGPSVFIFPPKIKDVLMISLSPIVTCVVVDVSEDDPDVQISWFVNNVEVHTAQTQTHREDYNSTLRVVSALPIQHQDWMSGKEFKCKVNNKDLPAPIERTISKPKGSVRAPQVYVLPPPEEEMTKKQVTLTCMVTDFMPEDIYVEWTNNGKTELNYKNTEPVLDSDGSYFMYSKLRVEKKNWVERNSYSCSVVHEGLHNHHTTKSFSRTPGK

T3: human NPR1 on HEK293/hNPR1.myc.DDK cells (no hANP added) (human, UniProt P16066 33-1061)
T3 sequence (looked up): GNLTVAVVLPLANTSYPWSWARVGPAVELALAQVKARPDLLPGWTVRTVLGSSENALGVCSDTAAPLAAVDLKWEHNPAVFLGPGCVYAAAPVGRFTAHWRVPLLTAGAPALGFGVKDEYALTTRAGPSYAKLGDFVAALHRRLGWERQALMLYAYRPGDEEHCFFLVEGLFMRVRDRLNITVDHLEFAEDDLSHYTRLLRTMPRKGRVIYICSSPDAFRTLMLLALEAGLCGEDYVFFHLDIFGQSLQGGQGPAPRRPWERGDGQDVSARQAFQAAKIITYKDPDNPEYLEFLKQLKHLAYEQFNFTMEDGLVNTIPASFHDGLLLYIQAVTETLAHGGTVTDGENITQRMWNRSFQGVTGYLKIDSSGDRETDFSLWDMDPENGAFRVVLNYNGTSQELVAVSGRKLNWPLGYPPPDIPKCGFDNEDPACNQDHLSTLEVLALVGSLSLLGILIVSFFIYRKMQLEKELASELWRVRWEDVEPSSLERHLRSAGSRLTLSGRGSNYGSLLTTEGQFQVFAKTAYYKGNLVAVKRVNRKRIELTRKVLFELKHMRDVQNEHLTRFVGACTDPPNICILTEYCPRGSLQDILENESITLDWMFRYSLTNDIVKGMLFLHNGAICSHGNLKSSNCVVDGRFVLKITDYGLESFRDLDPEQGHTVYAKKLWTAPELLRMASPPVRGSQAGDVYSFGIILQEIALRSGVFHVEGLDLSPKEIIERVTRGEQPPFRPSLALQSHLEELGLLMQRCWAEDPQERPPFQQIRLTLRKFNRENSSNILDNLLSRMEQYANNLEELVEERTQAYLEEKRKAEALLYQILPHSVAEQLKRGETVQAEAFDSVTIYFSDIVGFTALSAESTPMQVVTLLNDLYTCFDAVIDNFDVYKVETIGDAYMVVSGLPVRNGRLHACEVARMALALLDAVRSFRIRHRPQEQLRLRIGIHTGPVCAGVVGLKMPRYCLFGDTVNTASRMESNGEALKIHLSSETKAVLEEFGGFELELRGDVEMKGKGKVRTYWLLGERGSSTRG


How the values were obtained:
[1] = molecular target: mouse NPR1 extracellular domain expressed with a C-terminal myc-myc-hexahistidine (mNPR1-MMH) (mouse, UniProt P18293 29-469); assay: SPR, mAb captured, 37 C
Chain of mouse NPR1 extracellular domain expressed with a C-terminal myc-myc-hexahistidine (mNPR1-MMH) (P18293 other isoform, or with tags, fused parts or gaps): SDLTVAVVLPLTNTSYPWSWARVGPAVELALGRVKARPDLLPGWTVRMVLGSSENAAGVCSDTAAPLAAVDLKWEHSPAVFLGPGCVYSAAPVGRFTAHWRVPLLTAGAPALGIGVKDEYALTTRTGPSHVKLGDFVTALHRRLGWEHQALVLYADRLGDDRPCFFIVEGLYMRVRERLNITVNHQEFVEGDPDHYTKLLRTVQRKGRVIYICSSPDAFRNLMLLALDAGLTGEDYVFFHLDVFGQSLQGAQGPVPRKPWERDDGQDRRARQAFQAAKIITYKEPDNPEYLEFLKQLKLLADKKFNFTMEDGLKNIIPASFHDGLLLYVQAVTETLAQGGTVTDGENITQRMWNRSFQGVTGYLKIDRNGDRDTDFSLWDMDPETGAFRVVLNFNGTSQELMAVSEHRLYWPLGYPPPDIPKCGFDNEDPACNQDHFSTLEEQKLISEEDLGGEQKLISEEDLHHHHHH
Method in brief: (§1)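 First, a CM5 chip is amine-derivatized with anti-human Fc antibody. Next, anti-NPR1 mAbs are captured on it. Then NPR1 reagents are passed over in HBS-ET pH 7.4 running buffer, and KD is derived from real-time SPR sensorgrams.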

[2] = molecular target: T4, human NPR1 extracellular domain expressed with a C-terminal myc-myc-hexahistidine (hNPR1-MMH) (human, UniProt P16066 33-473); assay: SPR, mAb captured, 37 C
T4 construct: also called hNPR.mmh; monomeric human NPR1
Method in brief: as §1

[3] = molecular target: T1, monkey NPR1 extracellular domain …; assay: SPR, mAb captured, 37 C
Method in brief: as §1

[4] = molecular target: T2, human NPR1 extracellular domain …; assay: SPR, mAb captured, 37 C
Method in brief: as §1

[5] = molecular target: T3, human NPR1 on HEK293/hNPR1.myc.DDK …; assay: cell-based or functional assay

Binder | 100 nM Ag Bound (RU) [1] [RU] | 100 nM Ag Bound (RU) [2] [RU] | Kd [2] [nM] | koff [2] [s⁻¹] | kon [2] [M⁻¹ s⁻¹] | t½ [2] [min] | 100 nM Ag Bound (RU) [3] [RU] | Kd [3] [nM] | koff [3] [s⁻¹] | kon [3] [M⁻¹ s⁻¹] | t½ [3] [min] | 100 nM Ag Bound (RU) [4] [RU] | Kd [4] [nM] | koff [4] [s⁻¹] | kon [4] [M⁻¹ s⁻¹] | t½ [4] [min] | EC50 of Ca2+ flux activation, Expt I [5] [nM] | EC50 of Ca2+ flux activation, Expt II [5] [nM]
mAb22033 (antibody, V domains shown) VH: QVQLVQSGAEVKKPGASVTVSCKASGYTFTDYYMHWVRQAPGQGLEWMGWIKPNSGGTNSAQRFQGRITMTWDTSISTAYMELSRLRSDDTAVYYCSRGGPVMNYYYYYGMDVWGQGTTVTVSS VL: NIQMTQSPSSLSASVGDRVTITCRASQSIDSYLNWYQQKPGKAPKLLIYVASSLQSGVPSRFSGSGSGKDFTLTISSLQPEDFATYYCQQSYSIPTFGQGTRLEIK | 1 | 52 | 136 | 0.000819 | 6030 | 14.1 | 131 | 27.8 | 0.000697 | 25100 | 16.6 | 75 | 3.56 | 0.000131 | 36800 | 88.2 | 83.7 to 384 | 41.6
mAb22035 (antibody, V domains shown) VH: EVQLVESGGGLVQPGRSLRLSCAASGFTFDDYAMHWVRQAPGKGLEWVSGISWNSGTIGYADSVKGRFTMSRDNAKNSLYLQMNSLRPEDTALYYCAKDMGVSLALWGAFDIWGQGTMVTVSS VL: DIQMTQSPSSLSASVGDKVTITCRASQNIRTYLNWYQQKPGKAPKVLISTASSLQSGVPSRFSGSGSGTDFTLTISSLQPEDFAVFYCQQSFGIPRTFGQGTKVEIK | 1 | 284 | 1.3 | 0.000312 | 240000 | 37.1 | 319 | 0.702 | 0.000374 | 532000 | 30.9 | 257 | 0.2 | 0.000127 | 636000 | 90.8 | 83.7 to 384 | > 200
